Measurements from patent US20220056111A1 (YUROGEN BIOSYSTEMS, published 2022).

Experiments:
Assay in all cases: direct ELISA, OD450
[1] = biological target: MERS-CoV Spike protein (MERS-CoV, UniProt K9N5Q8 18-1296)
[2] = biological target: T1, SARS S1 and S2 protein (SARS, UniProt P59594 14-1195)
T1 construct: domain: S1 and S2

[3] = biological target: T2, HcoV-229E S protein (HcoV-229E, UniProt P15423 16-1115)
T2 sequence: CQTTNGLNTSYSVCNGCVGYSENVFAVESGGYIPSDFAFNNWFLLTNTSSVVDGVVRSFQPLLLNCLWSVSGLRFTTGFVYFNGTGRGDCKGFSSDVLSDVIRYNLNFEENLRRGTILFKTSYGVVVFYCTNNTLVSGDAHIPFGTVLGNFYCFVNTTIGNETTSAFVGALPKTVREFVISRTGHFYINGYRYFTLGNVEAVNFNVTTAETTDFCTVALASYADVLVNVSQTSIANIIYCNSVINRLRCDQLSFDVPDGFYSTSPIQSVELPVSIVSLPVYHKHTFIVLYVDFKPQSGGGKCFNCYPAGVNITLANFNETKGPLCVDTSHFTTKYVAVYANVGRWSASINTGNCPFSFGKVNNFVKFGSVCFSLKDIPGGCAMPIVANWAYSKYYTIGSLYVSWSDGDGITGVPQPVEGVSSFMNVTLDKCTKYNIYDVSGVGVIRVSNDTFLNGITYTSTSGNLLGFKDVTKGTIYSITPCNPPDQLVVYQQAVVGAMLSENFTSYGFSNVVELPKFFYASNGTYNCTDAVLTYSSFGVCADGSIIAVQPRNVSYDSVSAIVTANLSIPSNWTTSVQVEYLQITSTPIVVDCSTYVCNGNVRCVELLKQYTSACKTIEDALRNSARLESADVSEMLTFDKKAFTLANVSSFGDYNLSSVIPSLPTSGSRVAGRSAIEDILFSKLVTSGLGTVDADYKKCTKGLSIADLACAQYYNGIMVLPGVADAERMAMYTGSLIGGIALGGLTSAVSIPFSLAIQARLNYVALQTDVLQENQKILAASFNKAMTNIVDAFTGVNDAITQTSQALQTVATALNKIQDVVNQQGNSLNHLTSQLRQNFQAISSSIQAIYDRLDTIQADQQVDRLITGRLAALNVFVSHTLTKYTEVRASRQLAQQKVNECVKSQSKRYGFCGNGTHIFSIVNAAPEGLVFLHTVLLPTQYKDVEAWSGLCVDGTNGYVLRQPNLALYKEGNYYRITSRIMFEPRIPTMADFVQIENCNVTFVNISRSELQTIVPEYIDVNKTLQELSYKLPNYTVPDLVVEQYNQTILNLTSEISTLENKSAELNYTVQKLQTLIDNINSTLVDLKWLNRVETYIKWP

[4] = biological target: T3, HKU1 S1 and S2 protein (HKU1, UniProt Q5MQD0 13-1300)
T3 construct: domain: S1 and S2
T3 sequence: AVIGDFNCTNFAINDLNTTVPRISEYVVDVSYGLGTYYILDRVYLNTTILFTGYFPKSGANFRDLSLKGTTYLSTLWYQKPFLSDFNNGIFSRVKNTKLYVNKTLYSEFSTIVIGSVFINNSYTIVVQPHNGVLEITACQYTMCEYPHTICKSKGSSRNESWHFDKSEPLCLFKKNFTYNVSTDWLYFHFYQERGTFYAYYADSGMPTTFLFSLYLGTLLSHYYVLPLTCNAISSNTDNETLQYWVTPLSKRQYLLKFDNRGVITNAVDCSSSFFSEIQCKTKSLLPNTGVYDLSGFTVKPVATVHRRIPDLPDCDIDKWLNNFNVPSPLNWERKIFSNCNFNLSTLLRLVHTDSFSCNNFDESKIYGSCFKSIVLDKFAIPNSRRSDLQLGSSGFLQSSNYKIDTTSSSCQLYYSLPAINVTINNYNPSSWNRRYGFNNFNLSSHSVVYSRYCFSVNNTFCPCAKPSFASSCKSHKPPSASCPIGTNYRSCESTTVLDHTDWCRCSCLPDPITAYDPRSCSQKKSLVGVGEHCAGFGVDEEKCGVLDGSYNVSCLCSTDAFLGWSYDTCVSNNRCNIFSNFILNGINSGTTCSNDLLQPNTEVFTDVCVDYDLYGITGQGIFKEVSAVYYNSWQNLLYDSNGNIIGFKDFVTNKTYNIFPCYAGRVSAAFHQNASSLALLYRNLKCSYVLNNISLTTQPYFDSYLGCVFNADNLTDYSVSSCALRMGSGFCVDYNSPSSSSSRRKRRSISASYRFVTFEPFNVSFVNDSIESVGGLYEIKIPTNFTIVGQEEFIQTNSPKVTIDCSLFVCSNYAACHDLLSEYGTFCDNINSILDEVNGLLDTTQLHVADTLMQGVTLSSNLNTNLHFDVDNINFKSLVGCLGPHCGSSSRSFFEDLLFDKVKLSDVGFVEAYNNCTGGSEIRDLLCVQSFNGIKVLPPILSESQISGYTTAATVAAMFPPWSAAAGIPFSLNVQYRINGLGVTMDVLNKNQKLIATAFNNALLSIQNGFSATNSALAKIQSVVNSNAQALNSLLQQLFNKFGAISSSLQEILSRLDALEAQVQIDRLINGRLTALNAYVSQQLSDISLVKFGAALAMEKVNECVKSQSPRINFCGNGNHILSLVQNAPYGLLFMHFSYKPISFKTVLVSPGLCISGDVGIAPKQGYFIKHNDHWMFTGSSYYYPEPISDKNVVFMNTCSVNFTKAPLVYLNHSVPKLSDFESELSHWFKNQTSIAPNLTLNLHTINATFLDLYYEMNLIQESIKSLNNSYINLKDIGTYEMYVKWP

Measured: binding result

B1: rabbit monoclonal antibody 1H1 against the SARS-CoV-2 S1 (antibody, V domains shown)
VH: QSLEESGGDLVKPGASLTLTCTASGFSFSSGYDMCWVRQAPGKGLEWIACIGTGSSGNIYYASWAKGRFTISKTSSTTVTLQMTSLTAADTATYFCARDDADYAGPDYFNLWGPGTLVTVSS
VL: DIVMTQTPASVSEPVGGTVTIKCQASESISNWLAWYQQKPGQPPKLLIYAAFTLASGVPSRFKGSGSGTQFTLTINGVECADAATYYCQQTYSSRDVDNVFGGGTEVVVKG
no binding: all assays above

B2: rabbit monoclonal antibody 7G5 against the SARS-CoV-2 S1 (antibody, V domains shown)
VH: QEQLEESGGDLVKPGASLTLTCTASGFSFSSAYYMCWVRQAPGKGLEWIACIGVDSGGNSYYASWAKGRFTISTTSSTTVTLQMTSLTAADKATYFCTRSFSLWGPGTLVTISS
VL: RKWLTQTASSVSAAVGGTVTISCQASQSVYNNDNLAWFQQRPGQPPKLLIYLASNLASGVPPRFSGSGSGTQFTLTISDVQCDDAATYYCLGGYDCSNADCHAFGGGTEVVVKG
no binding: all assays above

B3: rabbit monoclonal antibody 9A5 against the SARS-CoV-2 S1 (antibody, V domains shown)
VH: QSVEESGGRLVTPGTPLTLTCTVSGFSLSAYQMIWVRQTPGKGLEYIGIMHTGTSAYYANWAKGRFTISKTSSTTVDLKMTSPTTEDTATYFCGRNLNEGFTGAYPFNLWGPGTLVAVSS
VL: DVVMTQTPASVEAAVGGTVTIKCQASQSIGSNLAWYQKKPGQPPKLLIYQASNLASGVPSRFKGSGSGTQFTLTISDLECADAATYYCQMNYYISSSYTYTFGGGTEVVVKG
no binding: all assays above

B4: rabbit monoclonal antibody 1D2 against the SARS-CoV-2 S1 (antibody, V domains shown)
VH: QSVEESGGRLVTPGTSLTLTCTVSGIDIETYWMSWVRQAPGKGLEWIAIITSHDHSGYANWAEGRFTISKTSTTVTLTITDLQPSDTGTYFCAKDVGHSTYDLWGPGTLVTVSS
VL: AAVLTQTPSPVSAAVGGTVTISCQSSESVLSNNRLSWYQQKPGQPPKLLIYAASTLASGVPSRFKGRGSGTQFTLTISDVQCDDAAMYVCAGAFSGSSDTRAFGGGTEVVVKG
no binding: [3]

B5: rabbit monoclonal antibody 1A3 against the SARS-CoV-2 S1 (antibody, V domains shown)
VH: QSLEESGGRLVTPGTPLTLTCTVSGFSFSSYHMGWVRQAPGEGLEWIGTLIGIAGNTYYASWAKGRFSISKTSTTVDLKMTSPTTEDTATYWCARIVTATFEFWGPGTLVTVSS
VL: AQVLTQTPSPVSAAVGGTVTISCQASQSVNMNLLSWFQQKPGQPPKLLIYQASNLASGVSARFKGSGSGTQFTLTINEIQCDDAATYYCQGDMGGWMFPFGGGTEVVVTG
no binding: all assays above
